B1: [Aib^1,3, Ala^10]PTH(1-14) (peptide)
peptide: [Aib]V[Aib]EIQLMHA[hArg]AKW-NH2
modifications: N-terminus assumed
SMILES: CC[C@H](C)[C@H](NC(=O)[C@H](CCC(=O)O)NC(=O)C(C)(C)NC(=O)[C@@H](NC(=O)C(C)(C)N)C(C)C)C(=O)N[C@@H](CCC(N)=O)C(=O)N[C@@H](CC(C)C)C(=O)N[C@@H](CCSC)C(=O)N[C@@H](Cc1c[nH]cn1)C(=O)N[C@@H](C)C(=O)N[C@@H](CCCCNC(=N)N)C(=O)N[C@@H](C)C(=O)N[C@@H](CCCCN)C(=O)N[C@@H](Cc1c[nH]c2ccccc12)C(N)=O
B2: [Aib^1,3, Ala^6]PTH(1-14) (peptide)
peptide: [Aib]V[Aib]EIALMHQ[hArg]AKW-NH2
modifications: N-terminus assumed
SMILES: CC[C@H](C)[C@H](NC(=O)[C@H](CCC(=O)O)NC(=O)C(C)(C)NC(=O)[C@@H](NC(=O)C(C)(C)N)C(C)C)C(=O)N[C@@H](C)C(=O)N[C@@H](CC(C)C)C(=O)N[C@@H](CCSC)C(=O)N[C@@H](Cc1c[nH]cn1)C(=O)N[C@@H](CCC(N)=O)C(=O)N[C@@H](CCCCNC(=N)N)C(=O)N[C@@H](C)C(=O)N[C@@H](CCCCN)C(=O)N[C@@H](Cc1c[nH]c2ccccc12)C(N)=O
B3: [Aib^1,3, Ala^6,10]PTH(1-14) (peptide)
peptide: [Aib]V[Aib]EIALMHA[hArg]AKW-NH2
modifications: N-terminus assumed
SMILES: CC[C@H](C)[C@H](NC(=O)[C@H](CCC(=O)O)NC(=O)C(C)(C)NC(=O)[C@@H](NC(=O)C(C)(C)N)C(C)C)C(=O)N[C@@H](C)C(=O)N[C@@H](CC(C)C)C(=O)N[C@@H](CCSC)C(=O)N[C@@H](Cc1c[nH]cn1)C(=O)N[C@@H](C)C(=O)N[C@@H](CCCCNC(=N)N)C(=O)N[C@@H](C)C(=O)N[C@@H](CCCCN)C(=O)N[C@@H](Cc1c[nH]c2ccccc12)C(N)=O
B4: [(Glu^6, Lys^10)lac.]PTH(1-14), cyclized via a 6-10 lactam bridge (peptide)
peptide: AVAEIELMHK[hArg]AKW-NH2
modifications: lactam 6-10; N-terminus assumed
SMILES: CC[C@H](C)[C@H](NC(=O)[C@H](CCC(=O)O)NC(=O)[C@H](C)NC(=O)[C@@H](NC(=O)[C@H](C)N)C(C)C)C(=O)N[C@H]1CCC(=O)NCCCC[C@@H](C(=O)N[C@@H](CCCCNC(=N)N)C(=O)N[C@@H](C)C(=O)N[C@@H](CCCCN)C(=O)N[C@@H](Cc2c[nH]c3ccccc23)C(N)=O)NC(=O)[C@H](Cc2c[nH]cn2)NC(=O)[C@H](CCSC)NC(=O)[C@H](CC(C)C)NC1=O
B5: [Glu^6, Lys^10]PTH(1-14) (linear) (peptide)
peptide: AVAEIELMHK[hArg]AKW-NH2
modifications: N-terminus assumed
SMILES: CC[C@H](C)[C@H](NC(=O)[C@H](CCC(=O)O)NC(=O)[C@H](C)NC(=O)[C@@H](NC(=O)[C@H](C)N)C(C)C)C(=O)N[C@@H](CCC(=O)O)C(=O)N[C@@H](CC(C)C)C(=O)N[C@@H](CCSC)C(=O)N[C@@H](Cc1c[nH]cn1)C(=O)N[C@@H](CCCCN)C(=O)N[C@@H](CCCCNC(=N)N)C(=O)N[C@@H](C)C(=O)N[C@@H](CCCCN)C(=O)N[C@@H](Cc1c[nH]c2ccccc12)C(N)=O
B6: [M]PTH(1-14) ([Ala^1,3,12,Gln^10,Har^11,Trp^14]PTH(1-14)amide; AlaValAlaGluIleGlnLeuMetHisGlnHarAlaLysTrp-amide) (peptide)
peptide: AVAEIQLMHQ[hArg]AKW-NH2
modifications: N-terminus assumed
SMILES: CC[C@H](C)[C@H](NC(=O)[C@H](CCC(=O)O)NC(=O)[C@H](C)NC(=O)[C@@H](NC(=O)[C@H](C)N)C(C)C)C(=O)N[C@@H](CCC(N)=O)C(=O)N[C@@H](CC(C)C)C(=O)N[C@@H](CCSC)C(=O)N[C@@H](Cc1c[nH]cn1)C(=O)N[C@@H](CCC(N)=O)C(=O)N[C@@H](CCCCNC(=N)N)C(=O)N[C@@H](C)C(=O)N[C@@H](CCCCN)C(=O)N[C@@H](Cc1c[nH]c2ccccc12)C(N)=O

Positions of bridges follow the written chain, without caps; N, C: chain ends. Non-standard residues stand in square brackets, D forms with d. No end group written: not given here. hArg = N=C(N)NCCCC[C@H](N)C(=O)O; Aib = CC(C)(N)C(=O)O

For the first assay, the target named is T1, P1R-DelNt (truncated human P1R deleted for residues 24-181) (human, UniProt Q03431 182-593).
T1 sequence (looked up): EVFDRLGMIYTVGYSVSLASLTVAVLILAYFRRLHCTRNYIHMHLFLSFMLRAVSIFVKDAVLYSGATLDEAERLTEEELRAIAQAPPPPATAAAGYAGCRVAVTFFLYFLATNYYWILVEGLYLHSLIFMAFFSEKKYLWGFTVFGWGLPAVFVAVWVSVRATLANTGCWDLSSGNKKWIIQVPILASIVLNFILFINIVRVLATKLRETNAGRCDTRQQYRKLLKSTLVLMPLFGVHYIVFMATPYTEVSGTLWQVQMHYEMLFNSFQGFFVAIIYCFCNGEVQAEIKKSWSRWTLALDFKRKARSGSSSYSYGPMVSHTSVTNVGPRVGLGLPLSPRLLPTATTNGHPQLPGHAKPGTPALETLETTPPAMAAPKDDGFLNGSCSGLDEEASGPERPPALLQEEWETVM
As to the kind of experiment: cell-based or functional assay.
As for B1, the “cAMP EC50” value was 81 nM and the “cAMP Emax (%)” value was found to be 104%.

B2: the “cAMP EC50” value was determined as 146 nM and the “cAMP Emax (%)” value came to 101%.

B3: the “cAMP EC50” value amounted to 24 nM and the “cAMP Emax (%)” value stood at 100%.

The target of another assay is T2, PTH/PTHrP receptor (P1R), wild-type, full-length (human, UniProt Q03431 27-593).
T2 sequence (looked up): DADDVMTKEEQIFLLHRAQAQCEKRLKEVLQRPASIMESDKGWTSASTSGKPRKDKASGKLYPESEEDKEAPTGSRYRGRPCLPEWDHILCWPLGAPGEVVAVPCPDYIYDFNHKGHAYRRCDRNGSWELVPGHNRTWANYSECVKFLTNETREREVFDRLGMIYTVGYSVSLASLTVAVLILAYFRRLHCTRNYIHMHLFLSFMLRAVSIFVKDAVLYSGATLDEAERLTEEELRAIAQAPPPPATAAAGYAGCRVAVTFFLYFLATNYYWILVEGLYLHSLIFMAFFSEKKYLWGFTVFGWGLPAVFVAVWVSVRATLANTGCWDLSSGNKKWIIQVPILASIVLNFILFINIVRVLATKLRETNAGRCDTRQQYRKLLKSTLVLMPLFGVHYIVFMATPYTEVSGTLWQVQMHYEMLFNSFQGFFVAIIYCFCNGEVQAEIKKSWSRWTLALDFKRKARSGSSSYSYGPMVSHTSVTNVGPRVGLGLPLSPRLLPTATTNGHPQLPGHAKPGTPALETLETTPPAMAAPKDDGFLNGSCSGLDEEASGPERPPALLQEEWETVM
As to the kind of experiment: cell-based or functional assay.
B4: the “cAMP EC50” value amounted to 27000 nM and the “cAMP Emax (%)” value was determined as 52%.

Consider B5, for which the “cAMP EC50” value amounted to 40000 nM and the “cAMP Emax (%)” value stood at 52%.

For the molecule B6, the “cAMP EC50” value was determined as 120 nM and the “cAMP Emax (%)” value was 100%.
